Assay results as given in article PMC10804683, “Identification of the pyridoxal 5′‐phosphate allosteric site in human pyridox(am)ine 5′‐phosphate oxidase” (Protein Science : A Publication of the Protein Society, 2024).

Substrate: Cc1ncc(COP(=O)(O)O)c(CN)c1O
Assay: purified protein, by the assay type
Conditions: other: F48A, 50 mM Tris–HCl pH 7.6, 37°C, 2 μM enzyme

B1: human PNPO F48A variant (Homo sapiens; F48A) (protein)
chain: MTCWLRGVTATFGRPAEWPGYLSHLCGRSAAMDLGPMRKSYRGDREAAEETHLTSLDPVKQFAAWFEEAVQCPDIGEANAMCLATCTRDGKPSARMLLLKGFGKDGFRFFTNFESRKGKELDSNPFASLVFYWEPLNRQVRVEGPVKKLPEEEAECYFHSRPKSSQIGAVVSHQSSVIPDREYLRKKNEELEQLYQDQEVPKPKSWGGYVLYPQVMEFWQGQTNRLHDRIVFRRGLPTGDSPLGPMTHRGEEDWLYERLAP
Km: 100 ± 5 µM
kcat: 0.1785 ± 0.003 s⁻¹
